Reference: patent publication US20180155451A1 (published 2018)

T1: FcγRIIb extracellular domain with C-terminal His tag (human, UniProt P31994 43-217)
T1 construct: extracellular domain; Soluble receptor expressed in FreeStyle293 cells; analyte in Biacore; also called FcgRIIb; 2b; not shown: His tag at the C terminus
T1 sequence (looked up): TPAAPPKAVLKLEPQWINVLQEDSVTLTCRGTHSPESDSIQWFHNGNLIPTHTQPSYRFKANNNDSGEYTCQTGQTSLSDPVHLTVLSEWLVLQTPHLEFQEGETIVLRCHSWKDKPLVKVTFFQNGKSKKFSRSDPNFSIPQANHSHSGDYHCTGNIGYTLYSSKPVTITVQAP

B1: GpH7-A5/GpH7-B3 variant A330_09D/GpL16-k0 (antibody, human IgG1, kappa)
heavy 1: not shown
heavy 2: not shown
light: DIVMTQSPLSLPVTPGEPASISCQASESLVHSNRNTYLHWYLQKPGQSPQLLIYKVSNRFSGVPDRFSGSGSGTDFTLKISRVEAEDVGVYYCSQNTHVPPTFGQGTKVEIERTVAAPSVFIFPPSDEQLKSGTASVVCLLNNFYPREAKVQWKVDNALQSGNSQESVTEQDSKDSTYSLSSTLTLSKADYEKHKVYACEVTHQGLSSPVTKSFNRGEC
notes: He Ab: heterodimerized anti-glypican-3 IgG1, substitution in one H chain only; also called He Ab A330D
B2: GpH7-A5/GpH7-B3 variant E333_13S/GpL16-k0 (antibody, human IgG1, kappa)
heavy 1: not shown
heavy 2: not shown
light: B1 light
notes: He Ab: heterodimerized anti-glypican-3 IgG1, substitution in one H chain only; also called He Ab E333S
B3: GpH7-A5/GpH7-B3 variant I336_13S/GpL16-k0 (antibody, human IgG1, kappa)
heavy 1: not shown
heavy 2: not shown
light: B1 light
notes: He Ab: heterodimerized anti-glypican-3 IgG1, substitution in one H chain only; also called He Ab I336S
B4: GpH7-A5/GpH7-B3 variant A330_07I/GpL16-k0 (antibody, human IgG1, kappa)
heavy 1: not shown
heavy 2: not shown
light: B1 light
notes: He Ab: heterodimerized anti-glypican-3 IgG1, substitution in one H chain only; also called He Ab A330I
B5: GpH7-A5/GpH7-B3 variant L328_05P/GpL16-k0 (antibody, human IgG1, kappa)
heavy 1: not shown
heavy 2: not shown
light: B1 light
notes: He Ab: heterodimerized anti-glypican-3 IgG1, substitution in one H chain only; also called He Ab L328P
B6: GpH7-A5/GpH7-B3 variant E333_01G/GpL16-k0 (antibody, human IgG1, kappa)
heavy 1: not shown
heavy 2: not shown
light: B1 light
notes: He Ab: heterodimerized anti-glypican-3 IgG1, substitution in one H chain only; also called He Ab E333G
B7: GpH7-A5/GpH7-B3 variant E333_12R/GpL16-k0 (antibody, human IgG1, kappa)
heavy 1: not shown
heavy 2: not shown
light: B1 light
notes: He Ab: heterodimerized anti-glypican-3 IgG1, substitution in one H chain only; also called He Ab E333R
B8: GpH7-A5/GpH7-B3 variant E333_02A/GpL16-k0 (antibody, human IgG1, kappa)
heavy 1: not shown
heavy 2: not shown
light: B1 light
notes: He Ab: heterodimerized anti-glypican-3 IgG1, substitution in one H chain only; also called He Ab E333A
B9: GpH7-A5/GpH7-B3 variant E333_16H/GpL16-k0 (antibody, human IgG1, kappa)
heavy 1: not shown
heavy 2: not shown
light: B1 light
notes: He Ab: heterodimerized anti-glypican-3 IgG1, substitution in one H chain only; also called He Ab E333H
B10: GpH7-A5/GpH7-B3 variant A330_06M/GpL16-k0 (antibody, human IgG1, kappa)
heavy 1: not shown
heavy 2: not shown
light: B1 light
notes: He Ab: heterodimerized anti-glypican-3 IgG1, substitution in one H chain only; also called He Ab A330M
B11: GpH7-A5/GpH7-B3 variant A330_03V/GpL16-k0 (antibody, human IgG1, kappa)
heavy 1: not shown
heavy 2: not shown
light: B1 light
notes: He Ab: heterodimerized anti-glypican-3 IgG1, substitution in one H chain only; also called He Ab A330V
B12: GpH7-A5/GpH7-B3 variant I336_01G/GpL16-k0 (antibody, human IgG1, kappa)
heavy 1: not shown
heavy 2: not shown
light: B1 light
notes: He Ab: heterodimerized anti-glypican-3 IgG1, substitution in one H chain only; also called He Ab I336G
B13: GpH7-A5/GpH7-B3 variant A327_20W/GpL16-k0 (antibody, human IgG1, kappa)
heavy 1: not shown
heavy 2: not shown
light: B1 light
notes: He Ab: heterodimerized anti-glypican-3 IgG1, substitution in one H chain only; also called He Ab A327W
B14: GpH7-A5/GpH7-B3 variant I332_12R/GpL16-k0 (antibody, human IgG1, kappa)
heavy 1: not shown
heavy 2: not shown
light: B1 light
notes: He Ab: heterodimerized anti-glypican-3 IgG1, substitution in one H chain only; also called He Ab I332R
B15: GpH7-A5/GpH7-B3 variant A330_10E/GpL16-k0 (antibody, human IgG1, kappa)
heavy 1: not shown
heavy 2: not shown
light: B1 light
notes: He Ab: heterodimerized anti-glypican-3 IgG1, substitution in one H chain only; also called He Ab A330E
B16: GpH7-A5/GpH7-B3 variant I336_19Q/GpL16-k0 (antibody, human IgG1, kappa)
heavy 1: not shown
heavy 2: not shown
light: B1 light
notes: He Ab: heterodimerized anti-glypican-3 IgG1, substitution in one H chain only; also called He Ab I336Q

Target: T2, FcγRIa extracellular domain with C-terminal His tag (human, UniProt P12314 16-292)
T2 construct: extracellular domain; Soluble receptor expressed in FreeStyle293 cells; analyte in Biacore; also called FcgRI; FcgRIa; not shown: His tag at the C terminus
T2 sequence (P12314 16-292): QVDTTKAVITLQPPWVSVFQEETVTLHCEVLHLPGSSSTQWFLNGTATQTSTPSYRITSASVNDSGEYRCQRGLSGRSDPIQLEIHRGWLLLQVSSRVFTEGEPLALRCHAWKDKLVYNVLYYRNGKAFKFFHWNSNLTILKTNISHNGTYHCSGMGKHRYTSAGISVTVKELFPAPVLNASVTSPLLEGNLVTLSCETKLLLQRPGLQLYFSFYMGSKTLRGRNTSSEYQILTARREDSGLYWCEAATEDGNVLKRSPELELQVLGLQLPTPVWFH
Experiment: SPR (Biacore); He/Con_1a divided by He/Con_2b (FcγRIIb)
Procedure: (§1) The heterodimerized antibodies He Abs in which one of the H chains was introduced with an alteration were assayed for their binding activities to each activating FcγR and inhibitory FcγR according to the method described in Example 4. […] The activating FcγRs in FIGS. 26, 27, 28, and 29 are FcγRIa, FcγRIIa (R), FcγRIIa (H), and FcγRIIIa, respectively.
(§2) Analysis of interaction between objective antibody and the FcγR was carried out using Biacore T100 (GE Healthcare). HBS-EP+ (GE Healthcare) was used as the running buffer, and the measurement temperature was set to 25° C. Chips produced by immobilizing the antigen peptide by the amine coupling method to a Series S Sencor Chip CM5 (GE Healthcare), or alternatively, chips produced by allowing preliminarily biotinylated antigen peptides to interact with and immobilize onto a Series S Sensor Chip SA (certified) (GE Healthcare) were used. Antibodies of interest were captured onto an antigen peptide-immobilized chip, and allowed to interact to each FcγR diluted with running buffer. To regenerate and repeatedly use the chip, the antibodies captured on the chip were washed off by reacting 10 mM glycine-HCl, pH 1.5.

He_1a/2b (Ia/IIb)	Binder
1.95	B1
1.26	B2
1.22	B3
1.57	B4
1.42	B5
1.26	B6
1.27	B7
1.23	B8
1.21	B9
1.3	B10
2.01	B11
1.21	B12
1.24	B13
2.05	B14
1.53	B15
1.78	B16

Target: T2, FcγRIa extracellular domain with …
Experiment: SPR (Biacore), antibody captured on antigen peptide chip, FcγR as analyte; binding relative to GpH7-A5/GpH7-B3/GpL16-k0 = 100
Procedure: as §1, §2

He/Con_1a (Ia binding)	Binder
109 % of control (control = 100)	B1
103 % of control (control = 100)	B2
102 % of control (control = 100)	B3
105 % of control (control = 100)	B4
92.2 % of control (control = 100)	B5
103 % of control (control = 100)	B6
102 % of control (control = 100)	B7
103 % of control (control = 100)	B8
101 % of control (control = 100)	B9
105 % of control (control = 100)	B10
106 % of control (control = 100)	B11
109 % of control (control = 100)	B12
97.7 % of control (control = 100)	B13
100 % of control (control = 100)	B14
107 % of control (control = 100)	B15
104 % of control (control = 100)	B16

Target: T1, FcγRIIb extracellular domain with …
Experiment: as above
Procedure: as §1, §2

He/Con_2b (IIb binding)	Binder
55.6 % of control (control = 100)	B1
81.8 % of control (control = 100)	B2
83.7 % of control (control = 100)	B3
67.1 % of control (control = 100)	B4
65.1 % of control (control = 100)	B5
81.4 % of control (control = 100)	B6
80.4 % of control (control = 100)	B7
83.8 % of control (control = 100)	B8
83.3 % of control (control = 100)	B9
80.5 % of control (control = 100)	B10
52.4 % of control (control = 100)	B11
90.1 % of control (control = 100)	B12
78.8 % of control (control = 100)	B13
48.9 % of control (control = 100)	B14
70.1 % of control (control = 100)	B15
58.2 % of control (control = 100)	B16
